Starred links: 1 amine or outer side, 2 acyl side, 3 side chain; linkers in the order of their positions; H or OH if unused. Non-standard residues stand in square brackets, D forms with d. Groups on a side chain read outwards from the residue. No end group written: not given here. *: point of attachment. C20 diacid = O=C(O)CCCCCCCCCCCCCCCCCCC(=O)*; C18 diacid = O=C(O)CCCCCCCCCCCCCCCCC(=O)*; C16 diacid = O=C(O)CCCCCCCCCCCCCCC(=O)*; γGlu = O=C(O)[C@H](CCC(=O)[*:2])N[*:1]; Palmitoyl = CCCCCCCCCCCCCCCC(=O)*; AEEA = NCCOCCOCC(=O)O; Aib = CC(C)(N)C(=O)O

Data on seven molecules can be found in patent US12679878B2, “CRF2 receptor agonists and their use in therapy” (SANOFI, priority 2020, dated 2026).

For one experiment, the target named is rat CRF2R α receptor (rat, UniProt P47866 20-411). As to the kind of experiment: cell-based or functional assay.
Sequence of rat CRF2R α receptor (P47866 20-411): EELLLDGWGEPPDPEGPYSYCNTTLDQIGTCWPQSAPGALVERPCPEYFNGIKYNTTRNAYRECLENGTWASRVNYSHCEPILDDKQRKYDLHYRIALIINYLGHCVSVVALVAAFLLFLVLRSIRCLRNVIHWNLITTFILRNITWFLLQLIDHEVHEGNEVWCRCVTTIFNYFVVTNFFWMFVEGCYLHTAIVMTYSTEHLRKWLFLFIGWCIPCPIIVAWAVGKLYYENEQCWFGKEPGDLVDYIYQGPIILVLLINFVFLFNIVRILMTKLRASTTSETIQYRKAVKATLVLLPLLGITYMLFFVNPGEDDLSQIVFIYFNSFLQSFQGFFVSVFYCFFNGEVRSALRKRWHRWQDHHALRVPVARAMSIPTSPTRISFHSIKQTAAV
Experiment [1] has as its target T1, CRF1R receptor (anti-target) (UniProt P34998 24-415, limits assumed).
T1 sequence (looked up): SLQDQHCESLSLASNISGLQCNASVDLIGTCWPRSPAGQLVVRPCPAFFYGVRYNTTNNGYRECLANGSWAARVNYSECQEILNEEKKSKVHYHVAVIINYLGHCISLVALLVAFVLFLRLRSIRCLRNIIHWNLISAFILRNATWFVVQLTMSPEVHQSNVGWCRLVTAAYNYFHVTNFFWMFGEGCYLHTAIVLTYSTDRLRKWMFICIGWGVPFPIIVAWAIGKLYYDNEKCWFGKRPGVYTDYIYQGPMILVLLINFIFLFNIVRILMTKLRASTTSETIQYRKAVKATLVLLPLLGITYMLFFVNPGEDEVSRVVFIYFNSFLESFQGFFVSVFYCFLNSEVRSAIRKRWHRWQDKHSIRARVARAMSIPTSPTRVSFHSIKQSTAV
As to the kind of experiment: cell-based or functional assay.

B1: peptide of SEQ ID NO: 36 (peptide)
peptide: IVLSLD[dV]PTKLK([AEEA-AEEA-γGlu-C18 diacid])QKLLKQERQRK[Aib]REQAEKNKRILERV-NH2
modifications: N-terminus assumed
SMILES: CC[C@H](C)[C@H](N)C(=O)N[C@H](C(=O)N[C@@H](CC(C)C)C(=O)N[C@@H](CO)C(=O)N[C@@H](CC(C)C)C(=O)N[C@@H](CC(=O)O)C(=O)N[C@@H](C(=O)N1CCC[C@H]1C(=O)N[C@H](C(=O)N[C@@H](CCCCN)C(=O)N[C@@H](CC(C)C)C(=O)N[C@@H](CCCCNC(=O)COCCOCCNC(=O)COCCOCCNC(=O)CC[C@H](NC(=O)CCCCCCCCCCCCCCCCC(=O)O)C(=O)O)C(=O)N[C@@H](CCC(N)=O)C(=O)N[C@@H](CCCCN)C(=O)N[C@@H](CC(C)C)C(=O)N[C@@H](CC(C)C)C(=O)N[C@@H](CCCCN)C(=O)N[C@@H](CCC(N)=O)C(=O)N[C@@H](CCC(=O)O)C(=O)N[C@@H](CCCNC(=N)N)C(=O)N[C@@H](CCC(N)=O)C(=O)N[C@@H](CCCNC(=N)N)C(=O)N[C@@H](CCCCN)C(=O)NC(C)(C)C(=O)N[C@@H](CCCNC(=N)N)C(=O)N[C@@H](CCC(=O)O)C(=O)N[C@@H](CCC(N)=O)C(=O)N[C@@H](C)C(=O)N[C@@H](CCC(=O)O)C(=O)N[C@@H](CCCCN)C(=O)N[C@@H](CC(N)=O)C(=O)N[C@@H](CCCCN)C(=O)N[C@@H](CCCNC(=N)N)C(=O)N[C@H](C(=O)N[C@@H](CC(C)C)C(=O)N[C@@H](CCC(=O)O)C(=O)N[C@@H](CCCNC(=N)N)C(=O)N[C@H](C(N)=O)C(C)C)[C@@H](C)CC)[C@@H](C)O)C(C)C)C(C)C
Regarding B1, in the experiment with rat CRF2R α receptor, the “EC50 [nM], 0% HSA (cAMP, A7R5 cells)” value was 13.3 nM.

In the case of IVLSLD[dV]PTKLK([AEEA-AEEA-γGlu-C20 diacid])KKLLKQERKR[Aib]EREKAEKAARILERV-NH2 [peptide of SEQ ID NO: 224], in experiment [1], the “EC50 [nM] 0% HSA (cAMP, HTRF)” value was > 100 nM and the “Emax (%) (100% = Sauvagine at 100 nM)” value was 52.6%.

As to IVLSLD[dV]PTKLK([γGlu-Palmitoyl])QKLLKQERQRKERE[Aib]AEKNKRILERV-NH2 [peptide of SEQ ID NO: 225], in experiment [1], the “EC50 [nM] 0% HSA (cAMP, HTRF)” value is 24.2 nM and the “Emax (%) (100% = Sauvagine at 100 nM)” value was found to be 58.9%.

B2: peptide of SEQ ID NO: 223 (peptide)
peptide: IVLSLD[dV]PTKLK([γGlu-Palmitoyl])QKLLKQERQRKEREQAEKNKRILERV-NH2
modifications: N-terminus assumed
SMILES: CCCCCCCCCCCCCCCC(=O)N[C@@H](CCC(=O)NCCCC[C@H](NC(=O)[C@H](CC(C)C)NC(=O)[C@H](CCCCN)NC(=O)[C@@H](NC(=O)[C@@H]1CCCN1C(=O)[C@H](NC(=O)[C@H](CC(=O)O)NC(=O)[C@H](CC(C)C)NC(=O)[C@H](CO)NC(=O)[C@H](CC(C)C)NC(=O)[C@@H](NC(=O)[C@@H](N)[C@@H](C)CC)C(C)C)C(C)C)[C@@H](C)O)C(=O)N[C@@H](CCC(N)=O)C(=O)N[C@@H](CCCCN)C(=O)N[C@@H](CC(C)C)C(=O)N[C@@H](CC(C)C)C(=O)N[C@@H](CCCCN)C(=O)N[C@@H](CCC(N)=O)C(=O)N[C@@H](CCC(=O)O)C(=O)N[C@@H](CCCNC(=N)N)C(=O)N[C@@H](CCC(N)=O)C(=O)N[C@@H](CCCNC(=N)N)C(=O)N[C@@H](CCCCN)C(=O)N[C@@H](CCC(=O)O)C(=O)N[C@@H](CCCNC(=N)N)C(=O)N[C@@H](CCC(=O)O)C(=O)N[C@@H](CCC(N)=O)C(=O)N[C@@H](C)C(=O)N[C@@H](CCC(=O)O)C(=O)N[C@@H](CCCCN)C(=O)N[C@@H](CC(N)=O)C(=O)N[C@@H](CCCCN)C(=O)N[C@@H](CCCNC(=N)N)C(=O)N[C@H](C(=O)N[C@@H](CC(C)C)C(=O)N[C@@H](CCC(=O)O)C(=O)N[C@@H](CCCNC(=N)N)C(=O)N[C@H](C(N)=O)C(C)C)[C@@H](C)CC)C(=O)O
For B2, in experiment [1], the “EC50 [nM] 0% HSA (cAMP, HTRF)” value stood at 82.8 nM and the “Emax (%) (100% = Sauvagine at 100 nM)” value turned out to be 57.3%.

B3: peptide of SEQ ID NO: 226 (peptide)
peptide: IVLSLD[dV]PIGLK([γGlu-Palmitoyl])QKLLKQQRQRKERQQAEKNKRILERV-NH2
modifications: N-terminus assumed
SMILES: CCCCCCCCCCCCCCCC(=O)N[C@@H](CCC(=O)NCCCC[C@H](NC(=O)[C@H](CC(C)C)NC(=O)CNC(=O)[C@@H](NC(=O)[C@@H]1CCCN1C(=O)[C@H](NC(=O)[C@H](CC(=O)O)NC(=O)[C@H](CC(C)C)NC(=O)[C@H](CO)NC(=O)[C@H](CC(C)C)NC(=O)[C@@H](NC(=O)[C@@H](N)[C@@H](C)CC)C(C)C)C(C)C)[C@@H](C)CC)C(=O)N[C@@H](CCC(N)=O)C(=O)N[C@@H](CCCCN)C(=O)N[C@@H](CC(C)C)C(=O)N[C@@H](CC(C)C)C(=O)N[C@@H](CCCCN)C(=O)N[C@@H](CCC(N)=O)C(=O)N[C@@H](CCC(N)=O)C(=O)N[C@@H](CCCNC(=N)N)C(=O)N[C@@H](CCC(N)=O)C(=O)N[C@@H](CCCNC(=N)N)C(=O)N[C@@H](CCCCN)C(=O)N[C@@H](CCC(=O)O)C(=O)N[C@@H](CCCNC(=N)N)C(=O)N[C@@H](CCC(N)=O)C(=O)N[C@@H](CCC(N)=O)C(=O)N[C@@H](C)C(=O)N[C@@H](CCC(=O)O)C(=O)N[C@@H](CCCCN)C(=O)N[C@@H](CC(N)=O)C(=O)N[C@@H](CCCCN)C(=O)N[C@@H](CCCNC(=N)N)C(=O)N[C@H](C(=O)N[C@@H](CC(C)C)C(=O)N[C@@H](CCC(=O)O)C(=O)N[C@@H](CCCNC(=N)N)C(=O)N[C@H](C(N)=O)C(C)C)[C@@H](C)CC)C(=O)O
With B3, in experiment [1], the “EC50 [nM] 0% HSA (cAMP, HTRF)” value stood at 96.2 nM and the “Emax (%) (100% = Sauvagine at 100 nM)” value amounted to 84%.

B4: peptide of SEQ ID NO: 18 (peptide)
peptide: IVLSLD[dV]PTKLK([γGlu-Palmitoyl])QKLLKQERQRKEREQAEKNKRILERV-NH2
modifications: N-terminus assumed
SMILES: CCCCCCCCCCCCCCCC(=O)N[C@@H](CCC(=O)NCCCC[C@H](NC(=O)[C@H](CC(C)C)NC(=O)[C@H](CCCCN)NC(=O)[C@@H](NC(=O)[C@@H]1CCCN1C(=O)[C@H](NC(=O)[C@H](CC(=O)O)NC(=O)[C@H](CC(C)C)NC(=O)[C@H](CO)NC(=O)[C@H](CC(C)C)NC(=O)[C@@H](NC(=O)[C@@H](N)[C@@H](C)CC)C(C)C)C(C)C)[C@@H](C)O)C(=O)N[C@@H](CCC(N)=O)C(=O)N[C@@H](CCCCN)C(=O)N[C@@H](CC(C)C)C(=O)N[C@@H](CC(C)C)C(=O)N[C@@H](CCCCN)C(=O)N[C@@H](CCC(N)=O)C(=O)N[C@@H](CCC(=O)O)C(=O)N[C@@H](CCCNC(=N)N)C(=O)N[C@@H](CCC(N)=O)C(=O)N[C@@H](CCCNC(=N)N)C(=O)N[C@@H](CCCCN)C(=O)N[C@@H](CCC(=O)O)C(=O)N[C@@H](CCCNC(=N)N)C(=O)N[C@@H](CCC(=O)O)C(=O)N[C@@H](CCC(N)=O)C(=O)N[C@@H](C)C(=O)N[C@@H](CCC(=O)O)C(=O)N[C@@H](CCCCN)C(=O)N[C@@H](CC(N)=O)C(=O)N[C@@H](CCCCN)C(=O)N[C@@H](CCCNC(=N)N)C(=O)N[C@H](C(=O)N[C@@H](CC(C)C)C(=O)N[C@@H](CCC(=O)O)C(=O)N[C@@H](CCCNC(=N)N)C(=O)N[C@H](C(N)=O)C(C)C)[C@@H](C)CC)C(=O)O
Regarding B4, the “EC50 [nM], 0% HSA (cAMP, A7R5 cells)” value in the experiment with rat CRF2R α receptor was 0.02 nM.

B5: peptide of SEQ ID NO: 197 (peptide)
peptide: IVLSLD[dV]PIKLK([γGlu-C16 diacid])QILLKQARQK[Aib]QRAQAEKNKRILERV-NH2
modifications: N-terminus assumed
SMILES: CC[C@H](C)[C@H](N)C(=O)N[C@H](C(=O)N[C@@H](CC(C)C)C(=O)N[C@@H](CO)C(=O)N[C@@H](CC(C)C)C(=O)N[C@@H](CC(=O)O)C(=O)N[C@@H](C(=O)N1CCC[C@H]1C(=O)N[C@H](C(=O)N[C@@H](CCCCN)C(=O)N[C@@H](CC(C)C)C(=O)N[C@@H](CCCCNC(=O)CC[C@H](NC(=O)CCCCCCCCCCCCCCC(=O)O)C(=O)O)C(=O)N[C@@H](CCC(N)=O)C(=O)N[C@H](C(=O)N[C@@H](CC(C)C)C(=O)N[C@@H](CC(C)C)C(=O)N[C@@H](CCCCN)C(=O)N[C@@H](CCC(N)=O)C(=O)N[C@@H](C)C(=O)N[C@@H](CCCNC(=N)N)C(=O)N[C@@H](CCC(N)=O)C(=O)N[C@@H](CCCCN)C(=O)NC(C)(C)C(=O)N[C@@H](CCC(N)=O)C(=O)N[C@@H](CCCNC(=N)N)C(=O)N[C@@H](C)C(=O)N[C@@H](CCC(N)=O)C(=O)N[C@@H](C)C(=O)N[C@@H](CCC(=O)O)C(=O)N[C@@H](CCCCN)C(=O)N[C@@H](CC(N)=O)C(=O)N[C@@H](CCCCN)C(=O)N[C@@H](CCCNC(=N)N)C(=O)N[C@H](C(=O)N[C@@H](CC(C)C)C(=O)N[C@@H](CCC(=O)O)C(=O)N[C@@H](CCCNC(=N)N)C(=O)N[C@H](C(N)=O)C(C)C)[C@@H](C)CC)[C@@H](C)CC)[C@@H](C)CC)C(C)C)C(C)C
B5: in experiment [1], the “EC50 [nM] 0% HSA (cAMP, HTRF)” value was > 100 nM and the “Emax (%) (100% = Sauvagine at 100 nM)” value turned out to be 24.4%.
